According to patent US20170137511A1:

Target: biotinylated human IL-15 (R&D Systems cat. no. NF150) (human) (UniProt P40933)
Experiment: blocking ELISA: biotinylated human IL-15 (100 pM) binding to plate-bound IL-15Rα-Fc, antibody titrated, streptavidin-peroxidase, absorbance at 450 nm; the filing does not say in words which of the two partners the control antibody binds

biotinylated human IL-15 (R&D Systems cat. no. NF150) (human), sequence (P40933 49-162 limits assumed): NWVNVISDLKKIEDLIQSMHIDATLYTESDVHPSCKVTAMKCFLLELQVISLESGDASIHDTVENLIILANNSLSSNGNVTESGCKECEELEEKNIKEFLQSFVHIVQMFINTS

IC50 (read off the curve): 10 µg/mL
Substance: antibody known to block IL-15 binding to IL-15Rα (R&D Systems cat. no. NF150)
